Assay results taken from patent US20150293119A1.

Experiments:
[1] = molecular target: recombinant human MMP-9/NGAL complex (human) (UniProt P14780); assay: ELISA (Quantikine, R&D Systems)
[2] = molecular target: human CNP-22 (AA 82-103) (human) (UniProt P23582); assay: radioimmunoassay
[3] = molecular target: human CNP-53 (AA 51-103) (human) (UniProt P23582); assay: radioimmunoassay, competition with I125-labeled CNP
[4] = molecular target: BNP (Homo sapiens (Human)) (UniProt P16860); assay: as above
[5] = molecular target: adrenomedullin (Homo sapiens (Human)) (UniProt P35318); assay: as above
[6] = molecular target: endothelin; assay: as above
[7] = molecular target: ANP (Homo sapiens (Human)) (UniProt P01160); assay: as above
[8] = molecular target: human CNP-53 (AA 51-103) (human) (UniProt P23582); assay: radioimmunoassay

Substance “NGAL enzyme-linked immunoassay (Quantikine ELISA, R&D Systems) (tool reagent)” has a cross-reactivity [1] of 0.3%.
For “antibody that detects human CNP-53, non-equilibrium radioimmunoassay kit from Phoenix Pharmaceutical (tool reagent)”, the cross-reactivity [2] was 100%.
“antibody to human CNP-22 of the non-equilibrium radioimmunoassay kit from Phoenix Pharmaceutical (Example 1) (tool reagent)” showed a cross-reactivity [3] of 97%, a cross-reactivity [4] of under 1% and a cross-reactivity [5] of under 1%. The cross-reactivity [6] was under 1% and the cross-reactivity [7] was under 1%.
“antibody that detects human CNP-22, non-equilibrium radioimmunoassay kit from Phoenix Pharmaceutical (Example 2) (tool reagent)” was tested, and the cross-reactivity [8] was 59%.
